By Kd is commonly meant the concentration at which binding is half-saturated.

Series [1] addresses T1, ICAM-1 (Homo sapiens, UniProt P05362 P05362:28-532). The experiment in a line: flow; COS7-ICAM-1 cells, 37 C 30 min, yeast tRNA 200 ug/mL pre-treatment, n=6. To be noted: tags: full-length human ICAM-1 cDNA (pCMV6-ICAM-1) transiently expressed in COS7 cells; label: 5'-Alexa Fluor 488.
The target of series [2] is ICAM-1 (endogenous, TNFalpha-induced) (UniProt P05362 P05362:28-532). In words: flow; TNFalpha-stimulated HMEC-1 cells, 37 C 30 min, yeast tRNA 200 ug/mL pre-treatment, n=3. To be noted: tags: HMEC-1 cells stimulated with TNFalpha 48 h; label: 5'-Alexa Fluor 488. The procedure: HMEC-1 cells were stimulated with TNFalpha for 48h to induce ICAM-1 expression.
Series [3] addresses T1, ICAM-1. In words: RT-qPCR cell binding on COS7-ICAM-1, 37 C 15 min, yeast tRNA 200 ug/mL pre-treatment. Particulars: tags: full-length human ICAM-1 cDNA (pCMV6-ICAM-1) transiently expressed in COS7 cells. The procedure: The same experiment was carried out with the unrelated aptamer A10, as negative control (sequence disclosed in Lupold S. E. et al., Cancer Res. 2002, 62, 4029-4033). The binding was evaluated by RT-qPCR.
On the technique in general: Real-time PCR tracks product formation cycle by cycle.

For series [4], the target named is T1, ICAM-1. In words: RT-qPCR cell binding, 50 nM RNA, 37 C 15 min. Particulars: tags: full-length human ICAM-1 cDNA (pCMV6-ICAM-1) transiently expressed in COS7 cells. The procedure:
To the aim of testing if the short aptamer 10.T (SEQ ID NO: 1) contained the active site of the original molecule 12c-10 (SEQ ID NO: 2) and preserved high binding and affinity to COS7-ICAM-1, binding assays were performed maintaining the same conditions used for long aptamers screening.
The RNA sequence 10.T was incubated at 50 nM, as final concentration, for 15 minutes at 37° C. on COS7-WT and COS7-ICAM-1. The ratio comparing binding values of COS7-ICAM-1 over COS7-WT (fold change) is reported in FIG. 5, showing a value of 2.2.

The target of series [5] is T1, ICAM-1. In words: RT-qPCR cell binding, 50 nM RNA, 37 C 15 min, yeast tRNA pre-treatment. Particulars: tags: full-length human ICAM-1 cDNA (pCMV6-ICAM-1) transiently expressed in COS7 cells. The procedure: Following the analysis of the enriched sequences, binding assays by RT-qPCR were performed in order to select the sequences able to bind COS7-ICAM-1. Essentially, DNA sequences were amplified and transcribed. Then, RNA sequences were incubated at 50 nM, as final concentration, for 15 minutes at 37° C., after pre-treatment with yeast tRNA 200 μg/mL, on COS7-WT and COS7-ICAM-1. Following incubation, cells were washed 3 times with PBS and recovered in TRIsure reagent. An RNA sequence used as reference control was spotted in each point for the normalization. A fold ratio was calculated comparing binding values of COS7-ICAM-1 over COS7-WT. Twelve sequences representatives of couples or groups of identical sequences were screened. Those with higher fold ratio were chosen for further analysis performing experimental triplicates.

T1 sequence (P05362 28-532, one chain of several): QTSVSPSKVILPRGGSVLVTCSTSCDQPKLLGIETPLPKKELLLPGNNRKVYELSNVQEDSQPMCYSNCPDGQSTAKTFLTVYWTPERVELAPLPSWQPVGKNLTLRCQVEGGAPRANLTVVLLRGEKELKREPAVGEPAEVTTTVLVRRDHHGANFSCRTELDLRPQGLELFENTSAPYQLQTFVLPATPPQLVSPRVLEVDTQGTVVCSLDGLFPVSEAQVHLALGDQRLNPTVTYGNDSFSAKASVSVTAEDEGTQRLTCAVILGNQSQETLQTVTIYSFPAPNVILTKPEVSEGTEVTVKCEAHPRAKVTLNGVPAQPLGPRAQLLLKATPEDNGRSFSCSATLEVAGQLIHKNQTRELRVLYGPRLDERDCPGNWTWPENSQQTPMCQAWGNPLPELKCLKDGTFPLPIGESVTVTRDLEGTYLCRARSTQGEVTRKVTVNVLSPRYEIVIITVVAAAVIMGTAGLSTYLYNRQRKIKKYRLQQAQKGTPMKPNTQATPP
Sequence of ICAM-1 (endogenous, TNFalpha-induced) (P05362 28-532, one chain of several): as above

B1: Alexa488-10.T (ssRNA)
RNA: UCAUGAUACGUUGCGUGAGCAACUGCGGCGCUAAAGUUUGGUUGACUAGUACAUG
modifications: 2'-F pyrimidines; 5'-C12 amino linker
On to B1, for which the Kd in the series with ICAM-1 [1] stood at 116 nM; in series [2], 106 nM.

B2: 10.T (ssRNA)
RNA: UCAUGAUACGUUGCGUGAGCAACUGCGGCGCUAAAGUUUGGUUGACUAGUACAUG
modifications: 2'-F pyrimidines
Regarding B2, the Kd with ICAM-1 [3] was 376 nM. The binding signal with ICAM-1 [4] is 2.2 fold COS7-ICAM-1 over COS7-WT.

B3: 12c-10 (ssRNA)
RNA: GGGAAGAGAAGGACAUAUGAUCAUGAUACGUUGCGUGAGCAACUGCGGCGCUAAAGUUUGGUUGACUAGUACAUGACCACUUGA
modifications: 2'-F pyrimidines
With B3, in the series with ICAM-1 [5], the binding signal is 3.13 fold COS7-ICAM-1 over COS7-WT.

Values taken from patent US20210292762, “ICAM-1 APTAMERS, DIAGNOSTIC AND THERAPEUTIC USES THEREOF” (BRACCO IMAGING S.P.A., published 2021).
